Here are results for one molecule from patent US20170218073A1 (HENLIX BIOTECH, published 2017).

One assay concerns the target T1, EGFR-AP fusion protein (UniProt P00533 25-645).
T1 construct: treated as one molecule; also called Alkaline phosphatase-conjugated EGFR; not shown: alkaline phosphatase (AP) part
Briefly: competitive ELISA: antibody pre-mixed with biotinylated HLX05, EGFR-AP added, capture on avidin wells, pNPP, A405; competitor: biotinylated HLX05. The protocol: Alkaline phosphatase-conjugated EGFR was then added to the pre-mixed solution and pre-incubated for 1 hour at room temperature. The preincubation mix was then added to mictotiter wells coated with avidin. Following a one-hour incubation, all wells were washed with PBST, and pNPP was added to each well. Following a second incubation at 37° C., the reaction was stopped.
For orientation: In an ELISA, binding on a coated surface is turned into a signal by an enzyme label.

The target in assay [1] is T2, epidermal growth factor receptor (EGFR) (UniProt P00533 25-645, limits assumed). Briefly: SPR; against HLX05. In general terms: Surface plasmon resonance follows binding to a sensor surface in real time, without labels.
Assay [2] deals with T2, epidermal growth factor receptor (EGFR). Briefly: kinetics, method not named for Table 6 (presumably SPR).
The target is the same in assay [3]. As to the kind of experiment: SPR.
The target in assay [4] is T3, EGFR antigen produced in-house (UniProt P00533 25-645, limits assumed).
T3 construct: May be the same preparation as m1
Briefly: off-rate ELISA in wells coated with EGFR antigen produced in-house, A405. The text has this: The 1-26 heavy chain was selected and used as the basis for generating CDR-H2 libraries for deletion of a glycosylation site. CDR-H2 nucleic acid libraries were generated via PCR, cloned into a phage display vector, and transformed into E. coli to produce a library of phages.

For assay [5], the target named is T2, epidermal growth factor receptor (EGFR). As to the kind of experiment: kinetics, method not named for Table 6 (presumably SPR); against HLX05.
Assay [6] has the same target. Briefly: kinetics of Table 6 (method not named, presumably SPR); lower end tied to 1-26/3-67 by Table 6 (2.2).

B1: 1-26/3-67 (LC/HC) (antibody, V domains shown)
VH: EVQLVESGGGLVQPGGSLRLSCAASGFSLTNYGVHWVRQAPGKGLEWLGVIWSGGNTDYGNEFTSRFTISRDNAKNSLYLQMNSLRAEDTAVYYCARALDYYDYEFAYWGQGTMVTVSS
VL: EIVLTQSPATLSLSPGERATLSCRASQSIGTNIHWYQQKPGQAPRLLIKYASESISGIPARFSGSGSGTDFTLTISSLEPEDFAVYYCQQNNNWPTSFGGGTKVEIK
notes: also called HLX07; HLX07 1-26/3-67
In the case of B1, in the assay with EGFR-AP fusion protein, the “IC50 (read off the curve)” value is roughly 4 µg/mL. For the same molecule, the “Fold difference in KD” value in assay [1] is 1.2 fold; in assay [5], 2.2 fold. The results for the Kd in assay [2] and in assay [3] were 0.111 nM and 0.109 nM, respectively. Also, the off-rate constant (koff) amounted to 0.000995 s⁻¹ in assay [2] and 0.000553 s⁻¹ in assay [3]. Also, the kon was found to be 8.93e+06 M⁻¹ s⁻¹ in assay [2] and 5.09e+06 M⁻¹ s⁻¹ in assay [3]. Besides, the concentration for a half-maximal effect (EC50 (read off the curve)) in assay [4] is roughly 0.3 µg/mL. Further, the “fold higher affinity than HLX05” value in assay [6] was 2 to 3 fold.

Broadly, the Kd is the equilibrium constant for the complex coming apart. A lower Kd goes with higher affinity. What is called koff is the rate constant with which the complex falls apart. As usually defined, the kon is the rate constant with which the complex forms. A low value points to slower complex formation. What is called EC50 (read off the curve) is the midpoint of the concentration-response curve. Read a low EC50 (read off the curve) as a more potent agent.
